Here are results for 2 molecules from article PMC9270373.

Test [1] deals with potato 14-3-3 protein St14f (Solanum tuberosum L. (potato)). The test can be described thus: crystal structure; St14f free form, 2.5 Å; hanging drop, 12% (w/v) PEG 8000, 0.2 M ammonium tartrate pH 7, 277 K; three chains (A, B, C) in the asymmetric unit, dimers AA and BC.
In test [2] the target is St14f D217A (Solanum tuberosum L. (potato)). Kind of test: thermal shift assay; 10 µM St14f with no and with 100 µM StFDL1 peptide; SYPRO Orange; 10 mM HEPES pH 7.5, 0.15 M NaCl; heated from 25 to 99 °C; ΔTm = melting temperature difference with and without the peptide.
The target in test [3] is potato 14-3-3 protein St14f (Solanum tuberosum L. (potato)). Described as above.
Test [4] deals with St14f L229A (Solanum tuberosum L. (potato)). The description is as above.
Test [5] concerns the target St14f S218L (Solanum tuberosum L. (potato)). Described as above.
The target of test [6] is St14f S214L (Solanum tuberosum L. (potato)). The description is as above.
Test [7] deals with St14f S214M (Solanum tuberosum L. (potato)). The test is described as above.
In test [8] the target is St14f S218M (Solanum tuberosum L. (potato)). The description is as above.
Test [9] addresses St14f I221A M222A (Solanum tuberosum L. (potato)). Described as above.
Test [10] deals with St14f S214T (Solanum tuberosum L. (potato)). The test is described as above.
In test [11] the target is St14f S218G (Solanum tuberosum L. (potato)). The description is as above.
The target in test [12] is St14f Y215A (Solanum tuberosum L. (potato)). The description is as above.

Square brackets hold non-standard residues; d marks the D form. Ends that are not written are not given here. pT = C[C@@H](OP(=O)(O)O)[C@H](N)C(=O)O

As a reminder, the stoichiometry N is a count of units in the complex or per binding partner. For the molecule “potato 14-3-3 protein St14f (natural protein)”, the stoichiometry N in test [1] came to 2.
As a reminder, the ΔTm is the change in melting temperature against a reference sample. Regarding LNRTS[pT]APF [StFDL1 peptide (LNRTSpTAPF)], the ΔTm in test [2] amounted to 6.67 °C; in test [3], 4.03 °C; in [4], 6.22 °C; in test [5], 7.61 °C; in [6], 4.26 °C; in test [7], 3.6 °C. The ΔTm in test [8] worked out at 7.48 °C; in [9] it was 4.63 °C; in test [10] it was 4.01 °C; in test [11] it was 6.37 °C; in test [12], 4.42 °C.
